{"source": "paper doi:10.1101/2024.05.08.592267", "about": "(2024)", "target": "P69P4", "experiment": "BLI"}
{"binder": "biotinylated natural Ara h 2 (natural protein, biotin (position not given)) RQQWELQGDRRCQSQLERANLRPCEQHLMQKIQRDEDSYGRDPYSPSQDPYSPSQDPDRRDPYSPSPYDRRGAGSSQHQERCCNELNEFENNQRCMCEALQQIMENQSDRLQGRQQEQQFKRELRNLPQQCGLRAPQRCDLEVESGGRDRY", "values": [{"measurement": "Kd", "value": 3.88, "unit": "pM"}]}
